1 protein from publication PMC4597109 (Structure(London, England:1993), 2015) can be followed below.

The data set deals with the molecule itself. Nature of the data set: cryo-EM structure.

B1: Barley stripe mosaic virus coat protein, in wild-type virions (wtBSMV) (natural protein)
chain: MPNVSLTAKGGGHYIEDQWDTQVVEAGVFDDWWVHVEAWNKFLDNLRGINFSVASSRSQVAEYLAALDRDLPADVDRRFAGARGQIGSPNYLPAPKFFRLDKRTIAELTRLSRLTDQPHNNRDIELNRAKRATTNPSPPAQAPSENLTLRDVQPLKDSALHYQYVLIDLQSARLPVYTRKTFERELALEWIIPDAEEA
With B1, the binding result is given as “binds”.
